Measured values published in US7229788B1, “Protease susceptibility II” (The University of Sydney, priority 1998, dated 2007).

T1: bovine trypsin (Bos taurus, UniProt P00760)
T1 construct: purchased Boehringer-Mannheim
T1 sequence (P00760 24-246): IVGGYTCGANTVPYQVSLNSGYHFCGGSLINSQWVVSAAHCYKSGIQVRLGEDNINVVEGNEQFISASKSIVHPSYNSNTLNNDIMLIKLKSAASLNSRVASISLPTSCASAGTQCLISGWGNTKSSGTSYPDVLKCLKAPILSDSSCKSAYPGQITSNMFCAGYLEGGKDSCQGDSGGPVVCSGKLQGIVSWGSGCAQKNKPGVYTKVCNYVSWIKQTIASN

T2: human leukocyte elastase (HLE) (Homo sapiens, UniProt P08246)
T2 construct: purchased Sigma
T2 sequence (P08246 30-267): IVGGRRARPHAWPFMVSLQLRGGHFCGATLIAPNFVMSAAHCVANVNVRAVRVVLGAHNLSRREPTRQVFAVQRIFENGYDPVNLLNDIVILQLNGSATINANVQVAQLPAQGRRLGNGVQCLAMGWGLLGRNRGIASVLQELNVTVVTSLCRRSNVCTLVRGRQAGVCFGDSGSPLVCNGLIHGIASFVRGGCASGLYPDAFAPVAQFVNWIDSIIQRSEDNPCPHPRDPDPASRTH

T3: Gelatinase A (72 kDa gelatinase) (Homo sapiens, UniProt P08253)
T3 construct: purchased Boehringer Mannheim Roche Diagnostics
T3 sequence (P08253 110-660): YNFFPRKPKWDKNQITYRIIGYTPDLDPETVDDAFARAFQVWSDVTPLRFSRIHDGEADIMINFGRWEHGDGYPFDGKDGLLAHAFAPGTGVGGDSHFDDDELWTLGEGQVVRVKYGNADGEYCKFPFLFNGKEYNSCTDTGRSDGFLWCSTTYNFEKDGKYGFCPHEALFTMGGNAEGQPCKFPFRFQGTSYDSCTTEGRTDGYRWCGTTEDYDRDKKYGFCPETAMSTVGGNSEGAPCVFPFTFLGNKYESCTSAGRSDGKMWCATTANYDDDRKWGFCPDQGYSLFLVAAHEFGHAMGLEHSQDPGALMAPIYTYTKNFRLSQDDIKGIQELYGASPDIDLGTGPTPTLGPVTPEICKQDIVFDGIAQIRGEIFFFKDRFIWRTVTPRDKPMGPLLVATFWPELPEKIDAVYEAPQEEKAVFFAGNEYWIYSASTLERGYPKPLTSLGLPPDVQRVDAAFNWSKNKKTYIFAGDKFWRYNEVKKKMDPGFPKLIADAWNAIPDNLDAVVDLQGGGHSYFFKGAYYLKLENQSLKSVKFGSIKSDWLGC


Assays:
Assay type in all cases: biochemical
human plasma kallikrein = target: T4, human plasma kallikrein (Homo sapiens, UniProt P03952); assay: Kallikrein digestion of SHEL, SDS-PAGE; details: for degradation by human plasma kallikrein: 50 mM sodium phosphate pH 7.8, 37° C.; for protection from degradation by kallikrein in the coacervated state: coacervated at 37° C., 150 mM NaCl
T4 construct: purchased Sigma
Procedure: (§1) A range of enzyme concentrations was originally used to determine the optimal amount for subsequent experiments. Thrombin (0.01–1U), human plasma kallikrein (3×10^−4 to 3×10^−3U), human plasmin (7×10^−5 to 4×10^−7U), bovine trypsin (5×10^−4 to 4×10^−3U), and human leukocyte elastase (1.6×10^−4 to 3.2×10^−3U) were added to 10 μg SHEL or SHELδ26A in 50 mM sodium phosphate buffer pH 7.8 in a total volume of 20 μl. All reactions were performed at 37° C. for one hour. Gelatinase A and B were activated using 0.8 mM APMA at 37° C. for 30 minutes (gelatinase A) or 37° C. for 45 minutes (gelatinase B). Gelatinase A (4×10^−3−4×10^−2) and gelatinase B (2×10^−5−1×10^−4) was added to […] SHEL or SHELd26A in a total volume of […]. Gelatinase B reactions were performed in the presence of 0.75 mM APMA. The degradation profile was analysed by 8, 10 or 12% SDS-PAGE.
(§2) Both SHEL and SHELδ26A were used. Each reaction was analysed by 10% SDS-PAGE.
(§3) Extent of proteolysis was monitored by SDS-PAGE.

human plasmin = target: T5, human plasmin (Homo sapiens, UniProt P00747); assay: Plasmin digestion of SHEL, SDS-PAGE; details: for protection from degradation by plasmin in the coacervated state: coacervated at 37° C., 150 mM NaCl
T5 construct: purchased Sigma
Procedure: as §1, §2, §3

human thrombin = target: T6, human thrombin (Homo sapiens, UniProt P00734); assay: Thrombin digestion of SHEL, SDS-PAGE; details: for protection from degradation by thrombin in the coacervated state: coacervated at 37° C., 150 mM NaCl
T6 construct: purchased Sigma
Procedure: as §1, §2, §3
Cleavage of GST-SHEL bound to glutathione agarose was performed by washing and resuspending beads in 1× thrombin cleavage buffer (50 mM Tris-HCl pH8.0, 150 mM NaCl, 2.5 mM CaCl2) and adding human thrombin (Sigma) from 0.1 to 1% (w/v) thrombin:fusion protein at 25° C. for one hour (Smith and Johnston 1988). Soluble bacterial lysates used as substrate were incubated similarly with 1× thrombin cleavage buffer, added from a 10× stock. GST (26 kDa) was evident on beads by SDS-PAGE but SHEL could not be identified in the supernatant in numerous experiments. To determine whether thrombin was degrading SHEL, the entire cell lysate was subject to cleavage with increasing concentrations of thrombin. […] GST was clearly present. However, with 0.01U thrombin a band at approximately 64 kDa could be discerned which may represent SHEL although this was not nearly as intense as the GST band.

protease = assay: Protease resistance of SHELδ26A compared with SHEL
Procedure: as §1

bovine trypsin = target: T1, bovine trypsin; assay: Trypsin digestion of SHEL, SDS-PAGE
Procedure: as §1, §2, §3

[1] = target: T2, human leukocyte elastase (HLE); assay: HLE digestion of SHEL, SDS-PAGE
Procedure: as §1, §2, §3

[2] = target: T3, Gelatinase A (72 kDa gelatinase); assay: Gelatinase A digestion of SHEL; details: SDS-PAGE and zymogram analysis
Procedure: as §1

[3] = target: T7, gelatinase B (92 kDa gelatinase) (Homo sapiens, UniProt P14780); assay: Gelatinase B digestion of SHEL; details: SDS-PAGE and zymogram analysis
T7 construct: purchased Boehringer Mannheim Roche Diagnostics
Procedure: as §1

[4] = 50 mM sodium phosphate pH 7.8, 37° C.
[5] = coacervated at 37° C., 150 mM NaCl

T4 sequence (P03952 20-638): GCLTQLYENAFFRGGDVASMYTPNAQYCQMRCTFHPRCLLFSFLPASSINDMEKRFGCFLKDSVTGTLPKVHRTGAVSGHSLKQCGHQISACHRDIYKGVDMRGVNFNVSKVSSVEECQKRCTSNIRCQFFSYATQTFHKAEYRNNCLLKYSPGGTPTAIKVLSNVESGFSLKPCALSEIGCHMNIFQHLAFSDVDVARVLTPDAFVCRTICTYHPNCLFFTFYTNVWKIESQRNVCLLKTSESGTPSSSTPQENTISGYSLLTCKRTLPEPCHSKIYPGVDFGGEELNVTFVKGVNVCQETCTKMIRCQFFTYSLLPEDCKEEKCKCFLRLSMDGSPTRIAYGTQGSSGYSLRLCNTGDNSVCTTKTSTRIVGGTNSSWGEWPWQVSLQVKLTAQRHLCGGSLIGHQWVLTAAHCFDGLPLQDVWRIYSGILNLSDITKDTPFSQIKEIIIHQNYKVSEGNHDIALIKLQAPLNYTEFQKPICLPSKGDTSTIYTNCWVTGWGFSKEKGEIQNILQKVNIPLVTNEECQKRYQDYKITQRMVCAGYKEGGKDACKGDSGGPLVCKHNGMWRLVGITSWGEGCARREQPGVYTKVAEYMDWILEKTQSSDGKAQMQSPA
T5 sequence (P00747 97-810): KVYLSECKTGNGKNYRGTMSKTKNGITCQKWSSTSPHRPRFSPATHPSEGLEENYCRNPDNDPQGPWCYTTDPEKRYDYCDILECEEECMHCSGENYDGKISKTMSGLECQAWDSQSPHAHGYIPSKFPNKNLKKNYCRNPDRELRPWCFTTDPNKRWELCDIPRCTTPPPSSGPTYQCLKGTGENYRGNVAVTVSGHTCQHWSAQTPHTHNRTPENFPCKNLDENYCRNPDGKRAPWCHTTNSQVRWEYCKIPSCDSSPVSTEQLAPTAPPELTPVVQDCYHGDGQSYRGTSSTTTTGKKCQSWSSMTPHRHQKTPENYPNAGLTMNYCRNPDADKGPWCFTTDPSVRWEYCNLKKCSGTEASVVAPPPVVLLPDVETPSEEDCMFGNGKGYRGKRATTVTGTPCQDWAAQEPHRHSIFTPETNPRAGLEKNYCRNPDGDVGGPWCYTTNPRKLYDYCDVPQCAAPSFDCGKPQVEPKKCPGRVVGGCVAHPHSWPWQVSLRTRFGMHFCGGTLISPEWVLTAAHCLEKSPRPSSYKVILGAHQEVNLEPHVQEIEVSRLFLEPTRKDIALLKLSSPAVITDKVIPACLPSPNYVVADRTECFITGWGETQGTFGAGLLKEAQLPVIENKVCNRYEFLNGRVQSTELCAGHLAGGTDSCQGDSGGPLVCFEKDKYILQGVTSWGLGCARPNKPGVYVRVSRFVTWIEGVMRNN
T7 sequence (P14780 107-707 limits assumed, species assumed): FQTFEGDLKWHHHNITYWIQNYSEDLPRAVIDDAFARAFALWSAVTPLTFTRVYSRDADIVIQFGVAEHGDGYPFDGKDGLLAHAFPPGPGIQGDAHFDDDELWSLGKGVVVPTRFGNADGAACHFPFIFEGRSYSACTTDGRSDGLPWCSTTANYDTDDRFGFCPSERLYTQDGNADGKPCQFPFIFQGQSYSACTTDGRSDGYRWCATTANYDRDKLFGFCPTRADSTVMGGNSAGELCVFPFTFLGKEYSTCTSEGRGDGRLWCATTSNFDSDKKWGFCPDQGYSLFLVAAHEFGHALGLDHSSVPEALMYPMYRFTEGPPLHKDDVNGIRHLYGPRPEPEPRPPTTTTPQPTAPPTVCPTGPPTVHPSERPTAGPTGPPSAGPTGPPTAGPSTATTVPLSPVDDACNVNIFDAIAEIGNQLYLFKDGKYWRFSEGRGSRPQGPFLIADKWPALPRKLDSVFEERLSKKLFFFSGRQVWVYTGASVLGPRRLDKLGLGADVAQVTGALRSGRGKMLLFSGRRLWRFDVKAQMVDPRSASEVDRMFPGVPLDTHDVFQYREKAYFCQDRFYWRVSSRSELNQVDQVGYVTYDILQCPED

| Molecule | degradation by human plasma kallikrein (human plasma kallikrein) | protection from degradation by kallikrein in the coacervated state (human plasma kallikrein) | protection from degradation by plasmin in the coacervated state (human plasmin) | protection from degradation by thrombin in the coacervated state (human thrombin) | protease resistance relative to SHEL (protease) | cleavage of fusion protein by thrombin (human thrombin; thrombin cleavage buffer, 25° C., one hour) | degradation by bovine trypsin (bovine trypsin; [4]) | protection from degradation by trypsin in the coacervated state (bovine trypsin; [5]) | degradation by human leukocyte elastase [1, 4] | protection from degradation by HLE in the coacervated state [1, 5] | degradation by human plasmin (human plasmin; [4]) | degradation by thrombin (human thrombin; 50 mM sodium phosphate pH 7.8, 37° C., one hour) | digestion by gelatinase A [2] | digestion by gelatinase B [3] |
| --- | --- | --- | --- | --- | --- | --- | --- | --- | --- | --- | --- | --- | --- | --- |
| SHELδ26A: derived from SHEL by removing sequence corresponding to exon 26A; SEQ ID NO:5; reduced tropoelastin derivative (protein, listed as Homo sapiens) GGVPGAIPGGVPGGVFYPGAGLGALGGGALGPGGKPLKPVPGGLAGAGLGAGLGAFPAVTFPGALVPGGVADAAAAYKAAKAGAGLGGVPGVGGLGVSAGAVVPQPGAGVKPGKVPGVGLPGVYPGGVLPGARFPGVGVLPGVPTGAGVKPKAPGVGGAFAGIPGVGPFGGPQPGVPLGYPIKAPKLPGGYGLPYTTGKLPYGYGPGGVAGAAGKAGYPTGTGVGPQAAAAAAAKAAAKFGAGAAGVLPGVGGAGVPGVPGAIPGIGGIAGVGTPAAAAAAAAAAKAAKYGAAAGLVPGGPGFGPGVVGVPGAGVPGVGVPGAGIPVVPGAGIPGAAVPGVVSPEAAAKAAAKAAKYGARPGVGVGGIPTYGVGAGGFPGFGVGVGGIPGVAGVPSVGGVPGVGGVPGVGISPEAQAAAAAKAAKYGVGTPAAAAAKAAAKAAQFGLVPGVGVAPGVGVAPGVGVAPGVGLAPGVGVAPGVGVAPGVGVAPGIGPGGVAAAAKSAAKVAAKAQLRAAAGLGAGIPGLGVGVGVPGLGVGAGVPGLGVGAGVPGFGAVPGALAAAKAAKYGAAVPGVLGGLGALGGVGIPGGVVGAGPAAAAAAAKAAAKAAQFGLVGAAGLGGLGVGGLGVPGVGGLGGIPPAAAAKAAKYGAAGLGGVLGGAGQFPLGGVAARPGFGLSPIFPGGACLGKACGRKRK | highly specific and limited proteolysis | significant protection from proteolysis | No protection was seen | significant protection from proteolysis | higher protease resistance than SHEL |  |  |  |  |  |  |  |  |  |
| GST-SHEL: fusion of glutathione S-transferase (GST) with SHEL (protein, left off: a dimerising Fc or GST) GGVPGAIPGGVPGGVFYPGAGLGALGGGALGPGGKPLKPVPGGLAGAGLGAGLGAFPAVTFPGALVPGGVADAAAAYKAAKAGAGLGGVPGVGGLGVSAGAVVPQPGAGVKPGKVPGVGLPGVYPGGVLPGARFPGVGVLPGVPTGAGVKPKAPGVGGAFAGIPGVGPFGGPQPGVPLGYPIKAPKLPGGYGLPYTTGKLPYGYGPGGVAGAAGKAGYPTGTGVGPQAAAAAAAKAAAKFGAGAAGVLPGVGGAGVPGVPGAIPGIGGIAGVGTPAAAAAAAAAAKAAKYGAAAGLVPGGPGFGPGVVGVPGAGVPGVGVPGAGIPVVPGAGIPGAAVPGVVSPEAAAKAAAKAAKYGARPGVGVGGIPTYGVGAGGFPGFGVGVGGIPGVAGVPSVGGVPGVGGVPGVGISPEAQAAAAAKAAKYGVGTPAAAAAKAAAKAAQFGLVPGVGVAPGVGVAPGVGVAPGVGLAPGVGVAPGVGVAPGVGVAPGIGPGGVAAAAKSAAKVAAKAQLRAAAGLGAGIPGLGVGVGVPGLGVGAGVPGLGVGAGVPGFGAGADEGVRRSLSPELREGDPSSSQHLPSTPSSPRVPGALAAAKAAKYGAAVPGVLGGLGALGGVGIPGGVVGAGPAAAAAAAKAAAKAAQFGLVGAAGLGGLGVGGLGVPGVGGLGGIPPAAAAKAAKYGAAGLGGVLGGAGQFPLGGVAARPGFGLSPIFPGGACLGKACGRKRK |  |  |  |  |  | extensively and in a reproducible manner |  |  |  |  |  |  |  |  |
| SHEL: recombinant human tropoelastin splice form, amino acid sequence SEQ ID NO:4, obtained by the method of WO94/14958 (protein, listed as Homo sapiens) GGVPGAIPGGVPGGVFYPGAGLGALGGGALGPGGKPLKPVPGGLAGAGLGAGLGAFPAVTFPGALVPGGVADAAAAYKAAKAGAGLGGVPGVGGLGVSAGAVVPQPGAGVKPGKVPGVGLPGVYPGGVLPGARFPGVGVLPGVPTGAGVKPKAPGVGGAFAGIPGVGPFGGPQPGVPLGYPIKAPKLPGGYGLPYTTGKLPYGYGPGGVAGAAGKAGYPTGTGVGPQAAAAAAAKAAAKFGAGAAGVLPGVGGAGVPGVPGAIPGIGGIAGVGTPAAAAAAAAAAKAAKYGAAAGLVPGGPGFGPGVVGVPGAGVPGVGVPGAGIPVVPGAGIPGAAVPGVVSPEAAAKAAAKAAKYGARPGVGVGGIPTYGVGAGGFPGFGVGVGGIPGVAGVPSVGGVPGVGGVPGVGISPEAQAAAAAKAAKYGVGTPAAAAAKAAAKAAQFGLVPGVGVAPGVGVAPGVGVAPGVGLAPGVGVAPGVGVAPGVGVAPGIGPGGVAAAAKSAAKVAAKAQLRAAAGLGAGIPGLGVGVGVPGLGVGAGVPGLGVGAGVPGFGAGADEGVRRSLSPELREGDPSSSQHLPSTPSSPRVPGALAAAKAAKYGAAVPGVLGGLGALGGVGIPGGVVGAGPAAAAAAAKAAAKAAQFGLVGAAGLGGLGVGGLGVPGVGGLGGIPPAAAAKAAKYGAAGLGGVLGGAGQFPLGGVAARPGFGLSPIFPGGACLGKACGRKRK | specific and reproducible degradation | significantly protected from degradation | not by plasmin | significantly protected from degradation |  |  | complete degradation with prolonged treatment | some inhibition | extensive degradation if left for extended period | some inhibition | at high concentration extensive degradation occurred | easily degraded | digested | digested |
